In PMC12249877, “AlphaFold 3-Assisted Deciphering of the DNA Recognition by DREB1 Transcription Factors in Rice”:

Assays:
OsDREB1A-DBD F43G = OsDREB1A-DBD F43G (Oryza sativa (rice), UniProt Q64MA1 32-103, F43G); assay: EMSA; 0.6 uM protein; EMSA: 0.01 uM FAM-dsDNA, 50 mM NaH2PO4, 150 mM NaCl, 5 mM DTT, 2% glycerol, pH 6.8, 15 min, room temperature; 12% native PAGE in 0.5x TBE; details: protein: recombinant; tags: C-terminal His-tag (pET28); blunt
OsDREB1A-DBD V64A = OsDREB1A-DBD V64A (Oryza sativa (rice), UniProt Q64MA1 32-103, V64A); assay: as above; details: protein: recombinant; tags: C-terminal His-tag (pET28); blunt
OsDREB1A-DBD V64A, sequence (Q64MA1 32-103 V64A): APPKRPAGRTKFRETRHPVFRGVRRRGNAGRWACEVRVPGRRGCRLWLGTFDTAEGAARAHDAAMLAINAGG

OsDREB1A-DBD F43G, sequence (Q64MA1 32-103 F43G): as the sequence (Q64MA1 32-103 V64A) above, with F12G, A33V counted along it

B1: CRT (dsDNA)
DNA 1: GTACGCCGACACT
DNA 2: AGTGTCGGCGTAC
Does B1 bind (OsDREB1A-DBD F43G)?
Result: binds

Does B1 bind (OsDREB1A-DBD V64A)?
Result: binds
